Laboratory results from patent US20250263467A1 (VIR BIOTECHNOLOGY, published 2025).

Assays:
[1] = biological target: SARS-CoV-2 S protein (strain BetaCoV/Wuhan-Hu-1/2019) expressed on transfected cells (SARS-CoV-2 (Wuhan-Hu-1), UniProt P0DTC2 14-1273); experiment: flow cytometry, B cell supernatant on S-transfected ExpiCHO cells
[2] = biological target: SARS-CoV-2 RBD with a Strep Tag II (SARS-CoV-2, UniProt P0DTC2 331-550); experiment: BLI (Octet), RBD-Strep Tag II captured, antibody from B cell supernatant
[3] = biological target: His-tagged RBD of SARS-CoV-2 (SARS-CoV-2 (Wuhan-Hu-1), UniProt P0DTC2 331-550); experiment: BLI (Octet), His-tagged RBD on anti-HIS sensors, antibody in solution
[4] = biological target: SARS-CoV-1 RBD (Sino Biological) (SARS-CoV-1, UniProt P59594 306-527); experiment: BLI (Octet), antibody on protein A sensors, RBD in solution
[5] = biological target: SARS-CoV-2 RBD (residues 331-550 of spike from BetaCoV/Wuhan-Hu-1/2019, produced in house in Expi-CHO cells) (SARS-CoV-2 (Wuhan-Hu-1), UniProt P0DTC2 331-550); experiment: as above
[6] = biological target: SARS-CoV-2 Spike protein on pseudotyped virus (SARS-CoV-2 (Wuhan-Hu-1), UniProt P0DTC2 14-1273); experiment: cell-based or functional assay

B1: SARS-CoV-2 S308-v1 (antibody, V domains shown)
VH: QVQLVESGGGVVQPGRSLRLSCAASRFTFSSYGMHWVRQAPGKGLEWVAVIWHDGNNKHYGDSVKGRVTISRDNSKNTLYLQMTSLRAEDTAVYYCARAVTTFKGSGRARMRGMDVWGQGTTVTVSS
VL: DIQLTQSPSFLSASVGDRVTITCRASQGINTYLAWYQQKPGKAPKLLIYAASTLQSGVPSRFSGSGSGTEFTLTISSLQPEDFATYYCQHLDTYPFTFGPGTKVDIK
Question: Does B1 bind [1]?
Answer: Result: binds

B2: SARS-CoV-2 S302 (antibody, V domains shown)
VH: QVQLVESGGGVVQPGRSLRLSCAASGFTFSSYGMHWVRQAPGKGLEWVAVISYDGSNKYYADSVKGRFTISRDNSKNTLYLQMNSLRAEDTAVYYCAKDISSGWDRVFDYWGQGTLVTVSS
VL: EILLTQSPGTLSLSPGERATLSCRTSQSVGSSYLAWYQQKPGQAPRLLIYAASSRAIGIPDRFSGSGSGTDFTLTISRLEPEDFAVYYCQQYGSSPWTFGQGTKVEIK
Question: Does B2 bind [1]?
Answer: Result: binds

B3: SARS-CoV-2 S303-v1 (antibody, V domains shown)
VH: EVQLVESGGGLVKPGGSLRLSCAASGFTFLTYSMNWVRQTPGKRLQWVSAISGSGGATYYADSVKGRFTISRDNSKNTLYLQMNTVTADDTAIYFCARERDDIFPMGLNAFDIWGQGAMVIVSS
VL: DIQMTQSPSTLSASVGDRVTITCRASQSISNWLAWYQQKPGKAPKLLIYKASSLESGVPSRFSGSGSGTEFTLTISSLQPDDSATYYCQQYDTYSWTFGQGTKVEIK
Question: Does B3 bind [2]?
Answer: Result: binds

Question: Does B3 bind [1]?
Answer: Result: binds

B4: S303 rIgG1 (antibody, V domains shown)
VH: EVQLVESGGGLVKPGGSLRLSCAASGFTFLTYSMNWVRQTPGKRLQWVSAISGSGGATYYADSVKGRFTISRDNSKNTLYLQMNTVTADDTAIYFCARERDDIFPMGLNAFDIWGQGAMVIVSS
VL: DIQMTQSPSTLSASVGDRVTITCRASQSISNWLAWYQQKPGKAPKLLIYKASSLESGVPSRFSGSGSGTEFTLTISSLQPDDSATYYCQQYDTYSWTFGQGTKVEIK
Question: Does B4 bind [3]?
Answer: Result: binds

Question: Does B4 bind [4]?
Answer: Result: binds

Question: Does B4 bind [5]?
Answer: Result: binds

B5: S315 rIgG1-LS (antibody, V domains shown)
VH: EVQLVESGGGLVQPGGSLRLSCAASGFTFSNYWMTWVRQAPGKGLEWVANIKQDGSEKYYVDSVKGRFTISRDNAKNSLYLQMNSLRAEDTAVYYCARDLWWNDQAHYYGMDVWGQGTTVTVSS
VL: SYELTQPPSVSVSPGQTARITCSGDAFPNQYAYWYQQKPGQAPVMLIYKDSERPSGIPERFFGSSSGTTVTLTIRGVQAEDEADYYCQSADSSGTVFGGGTKLTVL
Question: How did the “IC50, neutralization of SARS-CoV-2pp on DBT-ACE2 cells (further assay)” value [6] turn out when B5 was run?
Answer: Its value is 25.1 µg/mL.

B6: S304 rIgG1 (antibody, V domains shown)
VH: EVQLVESGGGLVQPGGSLRLSCAASGFTFSSYDMHWVRQTTGKGLEWVSTIGTAGDTYYPDSVKGRFTISREDAKNSLYLQMNSLRAGDTAVYYCARGDSSGYYYYFDYWGQGTLLTVSS
VL: DIQMTQSPSSLSAAVGDRVTITCRASQSIGSYLNWYQQKPGKAPKLLIYAASSLQSGVPSRFSGSGSGTDFTLTISSLQPEDFAIYYCQQSYVSPTYTFGPGTKVDIK
Question: What does the source list for B6?
Answer: IC50, neutralization of SARS-CoV-2pp on DBT-ACE2 cells [6]: ~17 µg/mL; binding result [4]: binds
